According to article PMC6534964 (Journal of the American Chemical Society, 2018):
Each block holds one binder with its values, some of them ahead of it.

B4: S100A9, subunit of native CP (natural protein, human, UniProt P06702 2-114, looked up)
chain: TCKMSQLERNIETIINTFHQYSVKLGHPDTLNQGEFKELVRKDLQNFLKKENKNEKVIEHIMEDLDTNADKQLSFEEFIMLMARLTWASHEKMHEGDEGPGHHHKPGLGEGTP

Columns and labels:
SEC = target: the molecule itself; assay: SEC
[1] = target: B4; assay: cross-linking
cross-linking = target: the molecule itself; assay: cross-linking
[2] = target: T1, S100A9(C3S), subunit of CP-Ser (human, UniProt P06702 2-114, C3S); assay: anion exchange chromatography
T1 sequence (looked up): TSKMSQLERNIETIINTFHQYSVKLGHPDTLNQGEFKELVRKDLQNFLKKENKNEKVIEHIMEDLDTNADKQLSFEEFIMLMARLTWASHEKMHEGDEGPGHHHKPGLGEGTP

B1: CP-Ser, S100A8(C42S)/S100A9(C3S) heterodimer of human calprotectin (complex)
chain 1: MLTELEKALNSIIDVYHKYSLIKGNFHAVYRDDLKKLLETESPQYIRKKGADVWFKELDINTDGAVNFQEFLILVIKMGVAAHKKSHEESHKE
chain 2: TSKMSQLERNIETIINTFHQYSVKLGHPDTLNQGEFKELVRKDLQNFLKKENKNEKVIEHIMEDLDTNADKQLSFEEFIMLMARLTWASHEKMHEGDEGPGHHHKPGLGEGTP
- binding result (SEC): binds

- binding result [1]: binds
B2: S100A8, subunit of native CP (natural protein, human, UniProt P05109 1-93, looked up)
chain: MLTELEKALNSIIDVYHKYSLIKGNFHAVYRDDLKKLLETECPQYIRKKGADVWFKELDINTDGAVNFQEFLILVIKMGVAAHKKSHEESHKE

B3: CP-Ser M81A variant, S100A8(C42S)/S100A9(C3S)(M81A) (complex, human)
chain 1: MLTELEKALNSIIDVYHKYSLIKGNFHAVYRDDLKKLLETESPQYIRKKGADVWFKELDINTDGAVNFQEFLILVIKMGVAAHKKSHEESHKE
chain 2: TSKMSQLERNIETIINTFHQYSVKLGHPDTLNQGEFKELVRKDLQNFLKKENKNEKVIEHIMEDLDTNADKQLSFEEFIALMARLTWASHEKMHEGDEGPGHHHKPGLGEGTP
- binding result (SEC): binds

Binder: B4
- binding result (cross-linking): binds

- binding result [2]: binds
B5: S100A8(C42S), subunit of CP-Ser (natural protein, human, UniProt P05109 1-93, looked up)
chain: MLTELEKALNSIIDVYHKYSLIKGNFHAVYRDDLKKLLETESPQYIRKKGADVWFKELDINTDGAVNFQEFLILVIKMGVAAHKKSHEESHKE
